Residue numbers refer to the chain shown, from its start.
B1: 3D8-HuC24 (antibody, human IgG1, kappa, V domains shown)
VH: EVQLVESGGGLVQPGGSLRLSCAASGFTFSSYAMSWVRQAPGKGLEWVASINSGGSTYYPDSVKGRFTISRDNAKNSLYLQMNSLRAEDTAVYYCARVNYYGYGDYAMDYWGQGTLVTVSS
VL: DIQMTQSPSSLSASVGDRVTITCQASQDISNYLTWFQQKPGKSPKTLIHRANRLVTGVPSRFSGSGSGTDFTFTISSLQPEDIATYYCLQYDEFPYTFGGGTKVEIKR
notes: humanized, human IgG1 / kappa
B2: 38F8-Hu57 (antibody, human IgG1, kappa, V domains shown)
VH: EVQLVESGGGLVQPGGSLRLSCAASGFTFSNYAMSWVRQAPEKRLEWVASISSGGPTYYPDSVKGRFTVSRDNSKNTLYLQMNSLRAEDTAVYYCARGYRYDVNWYFDVWGAGTMVTVSS
VL: B1 VL with F71Y, T85I
notes: humanized, human IgG1 / kappa
B3: 19F6-Hu35V1 (antibody, human IgG1, kappa, V domains shown)
VH: QVQLQESGPGLVKPSQTLSLTCTVSGYSITSDYAWNWIRQFPGKGLEWIGYISYSGSIRYNPSLKSRVTISRDTSKNQFSLKLSSVTAADTAVYYCARGEITYYFDYWGQGTLVTVSS
VL: ETTLTQSPAFMSATPGDKVTISCKASTSIDDDMNWYQQKPGEPPKLIISEGNTLRPGIPPRFSSSGYGTDFTFTINKIKSEDAATYYCLQSNDLPLTFGQGTKLEIKR
notes: humanized, human IgG1 / kappa
B4: 19F6-Hu14 (antibody, human IgG1, kappa, V domains shown)
VH: B3 VH with Q16E, S25T, F41P, I49M, N61K, S66D, V68I
VL: DIQMTQSPSSLSASVGDRVTITCQTSTDIDDDLNWYQQKPGKPPKLLISEGNTLETGVPSRFSGSGSGTDFTFTISSLQPEDIADYYCLQSNDLPLTFGAGTKLEIKR
notes: humanized, human IgG1 / kappa
B5: 19F6-Hu33 (antibody, human IgG1, kappa, V domains shown)
VH: B3 VH
VL: DIQMTQSPSSLSASVGDRVTITCRASTDIDDDMNWYQQKPGKAPKLLIYEGNTLQSGVPSRFSGSGYGTDFTLTISSLQPEDFATYYCLQSNDLPLTFGQGTKLEIKR
notes: humanized, human IgG1 / kappa
B6: 19F6-Hu23 (antibody, human IgG1, kappa, V domains shown)
VH: B3 VH with Q16E, F41P, I49M, S66D, V68I
VL: B5 VL
notes: humanized, human IgG1 / kappa
B7: 19F6-Hu13 (antibody, human IgG1, kappa, V domains shown)
VH: B3 VH with Q16E, S25T, F41P, I49M, N61K, S66D, V68I
VL: B5 VL
notes: humanized, human IgG1 / kappa
B8: 19F6-Hu32 (antibody, human IgG1, kappa, V domains shown)
VH: B3 VH
VL: B5 VL with R24I, A25T, S26T, Y49S
notes: humanized, human IgG1 / kappa
B9: 19F6-Hu12 (antibody, human IgG1, kappa, V domains shown)
VH: B3 VH with Q16E, S25T, F41P, I49M, N61K, S66D, V68I
VL: B5 VL with R24I, A25T, S26T, Y49S
notes: humanized, human IgG1 / kappa
B10: 19F6-Hu31 (antibody, human IgG1, kappa, V domains shown)
VH: B3 VH
VL: B5 VL with R24I, A25T, S26T, Y49S, Q55R, S56P
notes: humanized, human IgG1 / kappa
B11: 19F6-Hu21 (antibody, human IgG1, kappa, V domains shown)
VH: B3 VH with Q16E, F41P, I49M, S66D, V68I
VL: B5 VL with R24I, A25T, S26T, Y49S, Q55R, S56P
notes: humanized, human IgG1 / kappa
B12: 19F6-Hu24 (antibody, human IgG1, kappa, V domains shown)
VH: B3 VH with Q16E, F41P, I49M, S66D, V68I
VL: B4 VL
notes: humanized, human IgG1 / kappa
B13: 19F6-Chi (antibody, human IgG1, kappa, V domains shown)
VH: DVQLQESGPGLVKPSQSLSLTCTVTGYSITSDYAWNWIRQFPGNKLEWMGYISYSGSIRYNPSLKSRISITRDTSKNQFFLQLNSVTTEDTATYYCARGEITYYFDYWGQGTTLTVSS
VL: DIKMTQSPASLSMAIGEKVTIRCITTTDIDDDMNWYQQKPGEPPKLLISEGNTLRPGVPSRFSSSGYGTDFVFTIENMVSEDVADYYCLQSNDLPLTFGAGTKLELKR
notes: Variable regions of 19F6.2.3 on human IgG1 / kappa constant regions; also called anti-human ROR1 chimeric antibody 19F6-Chi
B14: 3D8-Chi (antibody, human IgG1, kappa, V domains shown)
VH: EVKLVESGGGLVKPGGSLKLSCAASGFTFSSYAMSWVRQTPEKRLEWVASINSGGSTYYPDSVKGRFTISRDNARNILYLQMSSLRSEDTAMYYCARVNYYGYGDYAMDYWGQGTSVTVSS
VL: DIKMTQSPSSMYASLGERVTITCKASQDINSYLSWFQQKPGKSPKTLIYRANRLVDGVPSRFSGSGSGQDYSLTISSLEYEDMGIYYCLQYDEFPYTFGGGTNLEIKR
notes: Variable regions of 3D8.2.3 on human IgG1 / kappa constant regions; also called anti-human ROR1 chimeric antibody 3D8-Chi

Target: T1, human ROR1 (full-length, on the cell surface) (human, UniProt Q01973 30-937)
T1 construct: whole, on cells; the tumour cell lines carry their own ROR1; also called Ba/F3-ROR1 cells; Jeko-1
T1 sequence (Q01973 30-937): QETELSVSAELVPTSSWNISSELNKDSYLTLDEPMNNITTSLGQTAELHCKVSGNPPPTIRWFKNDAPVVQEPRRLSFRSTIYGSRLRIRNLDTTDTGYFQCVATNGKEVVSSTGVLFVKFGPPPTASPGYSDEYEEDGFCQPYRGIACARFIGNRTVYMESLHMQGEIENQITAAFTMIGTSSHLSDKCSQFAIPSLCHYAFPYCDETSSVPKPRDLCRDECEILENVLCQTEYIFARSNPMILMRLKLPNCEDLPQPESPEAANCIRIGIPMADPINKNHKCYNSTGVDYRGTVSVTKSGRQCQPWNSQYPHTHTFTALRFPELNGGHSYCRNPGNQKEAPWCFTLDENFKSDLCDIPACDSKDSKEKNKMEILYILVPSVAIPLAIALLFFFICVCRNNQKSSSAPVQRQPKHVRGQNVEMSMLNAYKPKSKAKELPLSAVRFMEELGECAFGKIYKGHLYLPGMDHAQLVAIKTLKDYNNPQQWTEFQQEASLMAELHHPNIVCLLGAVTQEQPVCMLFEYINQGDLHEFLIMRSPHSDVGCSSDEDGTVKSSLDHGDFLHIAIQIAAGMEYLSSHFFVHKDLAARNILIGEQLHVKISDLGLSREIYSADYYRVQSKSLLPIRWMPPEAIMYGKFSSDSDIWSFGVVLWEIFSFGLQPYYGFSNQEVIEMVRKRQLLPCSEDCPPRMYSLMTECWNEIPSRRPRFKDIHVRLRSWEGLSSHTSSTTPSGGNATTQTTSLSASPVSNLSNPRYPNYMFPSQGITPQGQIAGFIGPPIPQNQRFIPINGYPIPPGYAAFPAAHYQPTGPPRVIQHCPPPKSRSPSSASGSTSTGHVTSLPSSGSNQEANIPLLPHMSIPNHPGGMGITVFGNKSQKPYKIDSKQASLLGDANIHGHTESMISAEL
Assay: flow cytometry, Jeko-1 cells
Description: (§1) The affinities of the anti-human ROR1 humanized antibodies to Ba/F3-ROR1, Jeko-1, HT-29 and A549 cells were detected by flow cytometry. The specific experimental steps were as follows: the BaBF3-ROR1, Jeko-1, HT-29 and A549 cells were incubated with the purified humanized antibodies of different concentration gradients on ice for 30 minutes, and the anti-ROR1 antibody UC961 with human IgG1 and the anti-TNP antibody were used as positive and negative controls, respectively.

| Binder | EC50 [pM] |
| --- | --- |
| B1 | 40 |
| B2 | 70 |
| B3 | 120 |
| B4 | 120 |
| B5 | 150 |
| B6 | 210 |
| B7 | 170 |
| B8 | 180 |
| B9 | 170 |
| B10 | 180 |
| B11 | 220 |
| B12 | 200 |

Target: T1, human ROR1 (full-length, on the cell …)
Assay: cell-based or functional assay

| Binder | EC50 of ADCC killing of Ba/F3-ROR1 cells by NK92MI-mCD16a-hFceRI cells [pM] |
| --- | --- |
| B1 | 280 |
| B2 | 190 |
| B3 | 310 |

Target: T2, human ROR1 ECD protein (human, UniProt Q01973 30-406)
T2 construct: range 30-406; Expressed in Expi293 or ExpiCHO cells; also called Recombinant human ROR ECD
T2 sequence (Q01973 30-406): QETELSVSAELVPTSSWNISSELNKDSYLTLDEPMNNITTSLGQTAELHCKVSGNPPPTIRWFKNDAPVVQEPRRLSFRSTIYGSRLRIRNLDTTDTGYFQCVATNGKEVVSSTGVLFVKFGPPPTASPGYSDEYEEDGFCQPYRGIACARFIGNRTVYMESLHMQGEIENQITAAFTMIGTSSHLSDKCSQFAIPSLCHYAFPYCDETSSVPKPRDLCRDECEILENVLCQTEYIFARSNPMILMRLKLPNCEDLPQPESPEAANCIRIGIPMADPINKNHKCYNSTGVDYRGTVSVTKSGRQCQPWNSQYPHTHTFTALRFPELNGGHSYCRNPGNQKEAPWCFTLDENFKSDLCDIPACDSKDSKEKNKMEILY
Assay: BLI (Octet), antibody on AHC sensor, ROR1 ECD in solution, 1:1 model
Description: The dynamic affinities of humanized molecules 19F6-Hu35V1, 3D8-HuC24 and 38F8-Hu57 and positive control antibody UC961 to human ROR1 ECD protein were determined by Octet ForteBio method.

| Binder | Kd [pM] | koff [s⁻¹] | kon [M⁻¹ s⁻¹] |
| --- | --- | --- | --- |
| B1 | 26100 | 0.0153 | 586000 |
| B2 | 10000 | 0.00242 | 241000 |
| B3 | 1610 | 0.000863 | 538000 |

Target: T1, human ROR1 (full-length, on the cell …)
Assay: flow cytometry, HT-29 cells
Description: as §1

| Binder | EC50 [pM] |
| --- | --- |
| B1 | 170 |
| B2 | 330 |
| B3 | 150 |
| B4 | 100 |
| B5 | 780 |
| B6 | 620 |
| B7 | 750 |
| B8 | 90 |
| B9 | 110 |
| B10 | 100 |
| B11 | 180 |
| B12 | 250 |

Target: T2, human ROR1 ECD protein
Assay: BLI (Octet), antibody on AHC sensor, ROR1 ECD in solution

| Binder | fold stronger affinity than UC961 (by KD) [fold] |
| --- | --- |
| B13 | 34.6 |
| B14 | 2 |
| B3 | 5.4 |

Target: T1, human ROR1 (full-length, on the cell …)
Assay: cell-based or functional assay
Remark: another data set of the same source

| Binder | internalization activity in N87 cells (pHrodo dye), fold over UC961 [fold] |
| --- | --- |
| B3 | ~7 |

Target: T2, human ROR1 ECD protein
Assay: BLI (Octet), antibody on AHC sensor, ROR1 ECD in solution, 1:1 model
Remark: another data set of the same source
Excerpt: Octet ForteBio is widely used in the detection of antibody-antigen dynamic affinity. This method was used to determine the dynamic affinities of the candidate chimeric antibodies 3D8-Chi, 19F6-Chi and 38F8-Chi and the positive control antibody UC961 to human ROR1.

| Binder | Kd [pM] | koff [s⁻¹] | kon [M⁻¹ s⁻¹] |
| --- | --- | --- | --- |
| B13 | 456 | 0.000514 | 1.13e+06 |
| B14 | 8090 | 0.00381 | 471000 |

Target: T1, human ROR1 (full-length, on the cell …)
Assay: flow cytometry, Jeko-1 cells
Remark: another data set of the same source
Description: (§2) The affinities of the purified anti-human ROR1 chimeric antibodies binding to the Ba/F3-ROR1, Jeko-1, HT-29 and A549 cells were analyzed by flow cytometry. The specific experimental steps were as follows: the Ba/F3-ROR1, Jeko-1, HT-29 and A549 cells were incubated with the purified chimeric antibodies of different concentration gradients on ice for 30 minutes, and the anti-ROR1 antibody UC961 with human IgG1 and the anti-TNP antibody were used as positive and negative controls respectively.

| Binder | EC50 [pM] |
| --- | --- |
| B13 | 271 |
| B14 | 619 |

Target: T1, human ROR1 (full-length, on the cell …)
Assay: flow cytometry, HT-29 cells
Remark: another data set of the same source
Description: as §2

| Binder | EC50 [pM] |
| --- | --- |
| B13 | 266 |
| B14 | 463 |

Target: T1, human ROR1 (full-length, on the cell …)
Assay: flow cytometry, Ba/F3-ROR1 cells
Description: as §1

| Binder | EC50 [pM] |
| --- | --- |
| B1 | 230 |
| B2 | 750 |

Target: T1, human ROR1 (full-length, on the cell …)
Assay: flow cytometry, Ba/F3-ROR1 cells
Remark: another data set of the same source
Description: as §2

| Binder | EC50 [pM] |
| --- | --- |
| B13 | 325 |
| B14 | 620 |

Target: T1, human ROR1 (full-length, on the cell …)
Assay: flow cytometry, A549 cells
Description: as §2

| Binder | EC50 [pM] |
| --- | --- |
| B13 | 87 |
| B14 | 280 |

Target: T1, human ROR1 (full-length, on the cell …)
Assay: flow cytometry, Ba/F3-ROR1 cells
Remark: another data set of the same source

| Binder | EC50 [pM] |
| --- | --- |
| B3 | 170 |
| B4 | 620 |
| B5 | 350 |
| B6 | 350 |
| B7 | 290 |
| B8 | 440 |
| B9 | 430 |
| B10 | 300 |
| B11 | 360 |
| B12 | 390 |

Target: T1, human ROR1 (full-length, on the cell …)
Assay: flow cytometry, A549 cells
Remark: another data set of the same source
Description: as §1

| Binder | EC50 [pM] |
| --- | --- |
| B1 | 290 |
| B2 | 230 |
| B3 | 80 |
| B4 | 120 |
| B5 | 250 |
| B6 | 140 |
| B7 | 470 |
| B8 | 90 |
| B9 | 160 |
| B10 | 90 |
| B11 | 310 |
| B12 | 240 |
